Among the data in publication PMC6597733, “Characterisation of a solvent-tolerant haloarchaeal (R)-selective transaminase isolated from a Triassic period salt mine” (Applied Microbiology and Biotechnology, 2019) are Km and kcat values, retold here.

Substrate in the data set: O=C(O)CCC(=O)C(=O)O
Nature of the data set: purified protein. The format is biochemical, Halorubrum sp. CSM-61. The note with it: α-KG varied 1-20 mM, amino donor (R)-methylbenzylamine co-varied at 5 equivalents, 0.5 mM PLP, phosphate pH 8.0, 1 M KCl, 30% DMF, 45 °C per general assay, the varied substrate is named only in Method.

In general, Km refers to the concentration of substrate that gives half-maximal velocity. By kcat is commonly meant the number of substrate molecules converted per active site and unit of time at saturation.

B1: BC61-TAm (Halorubrum sp. CSM-61) (protein)
chain: MGFDEMDVDTIWKNGEFLDWEDATTHVLTHALHYGSGVFEGVRCYDTEQGPAVFRWDEHLDRLFDSAKMYDLDIEHSREEITEATMELLRRQDLESCYIRPIAYYGYDSLGVSPKECPTDLVVAAWPWGAYLGEEALEDGVDVMVSSWRKHASSQVPTNVKTTGLYVNSMLAGEEARRNGYVEAIVLNKEGNVAEGPGENVFMVNDGEIYTTGPAQSILEGITRDTVIELAEERGYTVHDEAVVSRGQLYTADELFFTGSAAEVTPIRSVDDTEIGAGTRGPVTEELQSAFFDLVERRTDAHDDWFTYV
notes: full-length gene (930 bp), N-terminal 6xHis tag (pTA1228), expressed in Haloferax volcanii H1424, IMAC purified, 34-35 kDa
B1: the Km stood at 3.37 mM and the kcat came to 0.042 s⁻¹.
